The text below walks through data of patent US20200223889A1 (Novo Nordisk, published 2020).

Positions of bridges follow the written chain, without caps; N, C: chain ends. Non-standard residues stand in square brackets, D forms with d. Cit = NC(=O)NCCC[C@H](N)C(=O)O; Orn = NCCC[C@H](N)C(=O)O; Thz = O=C(O)[C@@H]1CSCN1; Api = NC1(C(=O)O)CCNCC1

In assay [1] the target is T1, human melanocortin 4 receptor (human, UniProt P32245 1-332). The assay can be described thus: cell-based or functional assay.
T1 sequence (P32245 whole entry): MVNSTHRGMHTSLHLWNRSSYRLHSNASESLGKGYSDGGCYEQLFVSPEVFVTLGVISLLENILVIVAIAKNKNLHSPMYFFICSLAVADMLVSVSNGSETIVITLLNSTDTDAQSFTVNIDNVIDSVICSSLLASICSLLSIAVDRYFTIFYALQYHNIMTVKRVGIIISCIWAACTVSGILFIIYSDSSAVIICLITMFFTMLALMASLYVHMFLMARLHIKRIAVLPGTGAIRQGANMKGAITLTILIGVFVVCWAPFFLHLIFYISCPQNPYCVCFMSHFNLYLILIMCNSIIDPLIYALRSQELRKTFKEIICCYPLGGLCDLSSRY
Assay [2] has as its target human melanocortin 1 receptor (human, UniProt Q01726 1-317). As to the kind of experiment: cell-based or functional assay.
The target of assay [3] is T1, human melanocortin 4 receptor. As to the kind of experiment: competition with 125-NDP-α-MSH, BHK human MC4R membranes. The protocol: In order to assess the binding affinity of the selected compounds for the human MC4R competitive binding assays was performed with radiolabeled NDP-alpha MSH (¹²⁵NDP-α-MSH).
The assay was performed in 96-well filterplates (Unifilter) using BHK cells stably expressing the human MC4 receptor.
The BHK cell membranes were prepared from frozen or fresh cells that were homogenized in 20 mM HEPES pH 7.1, 5 mM MgCl₂, 1 mg/ml bacitracin (buffer 1) and centrifuged at 15000 rpm at 4° C., 10 min in a Sorvall RC 5B plus, SS-34 rotor. The supernatant was discarded, and the pellets were re-suspended in buffer 1, homogenized and centrifuged two more times. The final pellets were re-suspended in buffer 1 and the protein concentration was measured and adjusted with buffer 1 to 5 mg/ml and the membrane preparation was kept at −80° C. until assay. The assay was run on a dilution of this cell membrane suspension without any further preparation. The suspension was diluted to give maximally 10% specific binding, i.e. to approx. 50-100 fold dilution, optimized after each membrane preparation. The assay was performed in a total volume of 200 μl: 50 μl of cell suspension, 50 μl of ¹²⁵NDP-α-MSH (apx. […] in final concentration), 50 μl of test compound and 50 μl binding buffer were mixed and incubated for 2 h at 25° C. (binding buffer: 25 mM HEPES, pH 7.0, 1 mM CaCl₂), 1 mM MgSO₄, 1 mM EGTA, 0.005% Tween™ 20 and 0.1% HSA or, alternatively, 0.1% ovalbumin (Sigma; catalogue No. A-5503)). Test compounds were dissolved in 100% DMSO and diluted in binding buffer in a dose range from 1 μM to 0.001 nM. Radiolabelled ligand and membranes were diluted in binding buffer. The incubation was stopped by dilution with 8×100 μl ice-cold 0.9% NaCl. The radioactivity retained on the filters was counted using a Packard Topcounter. The data were analysed by non-linear regression analysis of binding curves, using the Windows™ program GraphPad™ Prism (GraphPad Software, USA).

Chain of human melanocortin 1 receptor (Q01726 whole entry): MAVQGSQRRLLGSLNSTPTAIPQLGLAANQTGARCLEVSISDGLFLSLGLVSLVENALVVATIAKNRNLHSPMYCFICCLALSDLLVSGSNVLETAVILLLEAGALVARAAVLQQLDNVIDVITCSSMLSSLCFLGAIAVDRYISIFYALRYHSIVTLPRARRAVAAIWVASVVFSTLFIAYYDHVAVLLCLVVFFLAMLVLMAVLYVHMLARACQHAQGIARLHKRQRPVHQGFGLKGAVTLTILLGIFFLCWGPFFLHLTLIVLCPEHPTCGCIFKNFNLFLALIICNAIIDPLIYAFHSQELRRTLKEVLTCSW

B1: Chem. 119 (peptide)
peptide: cyclo(C[Thz]H[dF]HWCA[Orn]E[Orn]R)
modifications: disulfide 1-7
SMILES: C[C@@H]1NC(=O)[C@@H]2CSSC[C@H](NC(=O)[C@H](CCCNC(=N)N)NC(=O)[C@H](CCCN)NC(=O)[C@H](CCC(=O)O)NC(=O)[C@H](CCCN)NC1=O)C(=O)N1CSC[C@H]1C(=O)N[C@@H](Cc1c[nH]cn1)C(=O)N[C@H](Cc1ccccc1)C(=O)N[C@@H](Cc1c[nH]cn1)C(=O)N[C@@H](Cc1c[nH]c3ccccc13)C(=O)N2
B1: the “MC4R cAMP EC50” value in assay [1] was determined as 0.06 nM. Besides, the “MC1R cAMP EC50” value in assay [2] turned out to be 99.6 nM.

B2: Chem. 50 (peptide)
peptide: cyclo(C[Api]H[dF]HWC[Api]H[dF]HW)
modifications: disulfide 1-7
SMILES: O=C1N[C@H]2CSSC[C@H](NC(=O)[C@H](Cc3c[nH]c4ccccc34)NC(=O)[C@H](Cc3c[nH]cn3)NC(=O)[C@@H](Cc3ccccc3)NC(=O)[C@H](Cc3c[nH]cn3)NC(=O)C3(CCNCC3)NC2=O)C(=O)NC2(CCNCC2)C(=O)N[C@@H](Cc2c[nH]cn2)C(=O)N[C@H](Cc2ccccc2)C(=O)N[C@@H](Cc2c[nH]cn2)C(=O)N[C@H]1Cc1c[nH]c2ccccc12
notes: also called c[c[Cys-ACP-His-D-Phe-His-Trp-Cys]-ACP-His-D-Phe-His-Trp]
On to B2, for which the “MC4R cAMP EC50” value in assay [1] was found to be 1.17 nM. Moreover, the “MC1R cAMP EC50” value in assay [2] is 66.2 nM. The molecule further registered an inhibition constant (Ki) in assay [3] of 19.9 nM.

B3: Chem. 120 (peptide)
peptide: cyclo(C[Thz]H[dF]HWCAHE[Orn]R)
modifications: disulfide 1-7
SMILES: C[C@@H]1NC(=O)[C@@H]2CSSC[C@H](NC(=O)[C@H](CCCNC(=N)N)NC(=O)[C@H](CCCN)NC(=O)[C@H](CCC(=O)O)NC(=O)[C@H](Cc3c[nH]cn3)NC1=O)C(=O)N1CSC[C@H]1C(=O)N[C@@H](Cc1c[nH]cn1)C(=O)N[C@H](Cc1ccccc1)C(=O)N[C@@H](Cc1c[nH]cn1)C(=O)N[C@@H](Cc1c[nH]c3ccccc13)C(=O)N2
Consider B3, for which the “MC4R cAMP EC50” value in assay [1] was 0.08 nM. In assay [2], the “MC1R cAMP EC50” value was 294 nM.

B4: Chem. 53 (peptide)
peptide: cyclo(CEH[dF]HWCEH[dF]HW)
modifications: disulfide 1-7
SMILES: O=C(O)CC[C@@H]1NC(=O)[C@@H]2CSSC[C@H](NC(=O)[C@H](Cc3c[nH]c4ccccc34)NC(=O)[C@H](Cc3c[nH]cn3)NC(=O)[C@@H](Cc3ccccc3)NC(=O)[C@H](Cc3c[nH]cn3)NC1=O)C(=O)N[C@@H](CCC(=O)O)C(=O)N[C@@H](Cc1c[nH]cn1)C(=O)N[C@H](Cc1ccccc1)C(=O)N[C@@H](Cc1c[nH]cn1)C(=O)N[C@@H](Cc1c[nH]c3ccccc13)C(=O)N2
notes: also called c[c[Cys-Glu-His-D-Phe-His-Trp-Cys]-Glu-His-D-Phe-His-Trp]
For B4, in assay [1], the “MC4R cAMP EC50” value stood at 11 nM. The “MC1R cAMP EC50” value in assay [2] is greater than 10 nM. Moreover, the inhibitory constant (Ki) in assay [3] was found to be 9.47 nM.

B5: Chem. 52 (peptide)
peptide: cyclo(CKH[dF]HWCKH[dF]HW)
modifications: disulfide 1-7
SMILES: NCCCC[C@@H]1NC(=O)[C@@H]2CSSC[C@H](NC(=O)[C@H](Cc3c[nH]c4ccccc34)NC(=O)[C@H](Cc3c[nH]cn3)NC(=O)[C@@H](Cc3ccccc3)NC(=O)[C@H](Cc3c[nH]cn3)NC1=O)C(=O)N[C@@H](CCCCN)C(=O)N[C@@H](Cc1c[nH]cn1)C(=O)N[C@H](Cc1ccccc1)C(=O)N[C@@H](Cc1c[nH]cn1)C(=O)N[C@@H](Cc1c[nH]c3ccccc13)C(=O)N2
notes: also called c[c[Cys-Lys-His-D-Phe-His-Trp-Cys]-Lys-His-D-Phe-His-Trp]
Take B5: the “MC4R cAMP EC50” value in assay [1] came out at 0.23 nM. Further, the “MC1R cAMP EC50” value in assay [2] was determined as 47.7 nM. Further, the Ki in assay [3] is 0.76 nM.

B6: Chem. 54 (peptide)
peptide: cyclo(CRH[dF][Cit]WCRH[dF][Cit]W)
modifications: disulfide 1-7
SMILES: N=C(N)NCCC[C@@H]1NC(=O)[C@@H]2CSSC[C@H](NC(=O)[C@H](Cc3c[nH]c4ccccc34)NC(=O)[C@H](CCCNC(N)=O)NC(=O)[C@@H](Cc3ccccc3)NC(=O)[C@H](Cc3c[nH]cn3)NC1=O)C(=O)N[C@@H](CCCNC(=N)N)C(=O)N[C@@H](Cc1c[nH]cn1)C(=O)N[C@H](Cc1ccccc1)C(=O)N[C@@H](CCCNC(N)=O)C(=O)N[C@@H](Cc1c[nH]c3ccccc13)C(=O)N2
notes: also called c[c[Cys-Arg-His-D-Phe-Cit-Trp-Cys]-Arg-His-D-Phe-Cit-Trp]
Turning to B6, the “MC4R cAMP EC50” value in assay [1] worked out at 0.04 nM. Besides, the “MC1R cAMP EC50” value in assay [2] was found to be 0.29 nM. In assay [3], the inhibitory constant (Ki) stood at 0.21 nM.

B7: Chem. 118 (peptide)
peptide: cyclo(C[Thz]H[dF]HWCKR)
modifications: disulfide 1-7
SMILES: N=C(N)NCCC[C@@H]1NC(=O)[C@H](CCCCN)NC(=O)[C@@H]2CSSC[C@H](NC1=O)C(=O)N1CSC[C@H]1C(=O)N[C@@H](Cc1c[nH]cn1)C(=O)N[C@H](Cc1ccccc1)C(=O)N[C@@H](Cc1c[nH]cn1)C(=O)N[C@@H](Cc1c[nH]c3ccccc13)C(=O)N2
As for B7, the “MC4R cAMP EC50” value in assay [1] came out at 3.53 nM. For the same molecule, the “MC1R cAMP EC50” value in assay [2] was 4380 nM.

B8: Chem. 62 (peptide)
peptide: cyclo(CPH[dF]HWCAKKKW)
modifications: disulfide 1-7
notes: also called c[c[Cys-Pro-His-D-Phe-His-Trp-Cys]-Ala-Lys-Lys-Lys-Trp]
Consider B8, for which the “MC4R cAMP EC50” value in assay [1] stood at 0.17 nM. Moreover, the “MC1R cAMP EC50” value in assay [2] is greater than 1 nM. For the same molecule, in assay [3], the Ki was determined as 0.13 nM.

B9: Chem. 51 (peptide)
peptide: cyclo(CEH[dF]RWCEH[dF]RW)
modifications: disulfide 1-7
SMILES: N=C(N)NCCC[C@@H]1NC(=O)[C@@H](Cc2ccccc2)NC(=O)[C@H](Cc2c[nH]cn2)NC(=O)[C@H](CCC(=O)O)NC(=O)[C@@H]2CSSC[C@H](NC(=O)[C@H](Cc3c[nH]c4ccccc34)NC1=O)C(=O)N[C@@H](CCC(=O)O)C(=O)N[C@@H](Cc1c[nH]cn1)C(=O)N[C@H](Cc1ccccc1)C(=O)N[C@@H](CCCNC(=N)N)C(=O)N[C@@H](Cc1c[nH]c3ccccc13)C(=O)N2
notes: also called c[c[Cys-Glu-His-D-Phe-Arg-Trp-Cys]-Glu-His-D-Phe-Arg-Trp]
Regarding B9, the “MC4R cAMP EC50” value in assay [1] was determined as 0.2 nM. Also, the “MC1R cAMP EC50” value in assay [2] amounted to 2.69 nM. The molecule further showed an inhibition constant Ki in assay [3] of 0.5 nM.

B10: Chem. 1 (peptide)
peptide: cyclo(CH[dF]RWECH[dF]RWE)
modifications: disulfide 1-7
SMILES: N=C(N)NCCC[C@@H]1NC(=O)[C@@H](Cc2ccccc2)NC(=O)[C@H](Cc2c[nH]cn2)NC(=O)[C@@H]2CSSC[C@H](NC(=O)[C@H](CCC(=O)O)NC(=O)[C@H](Cc3c[nH]c4ccccc34)NC1=O)C(=O)N[C@@H](Cc1c[nH]cn1)C(=O)N[C@H](Cc1ccccc1)C(=O)N[C@@H](CCCNC(=N)N)C(=O)N[C@@H](Cc1c[nH]c3ccccc13)C(=O)N[C@@H](CCC(=O)O)C(=O)N2
notes: also called c[c[Cys-His-D-Phe-Arg-Trp-Glu-Cys]-His-D-Phe-Arg-Trp-Glu]
In the case of B10, in assay [1], the “MC4R cAMP EC50” value is 14.9 nM. Further, in assay [2], the “MC1R cAMP EC50” value amounted to 198 nM. Also, in assay [3], the inhibition constant (Ki) stood at 47.9 nM.

B11: Chem. 55 (peptide)
peptide: cyclo(CKH[dF][Cit]WCKH[dF][Cit]W)
modifications: disulfide 1-7
SMILES: NCCCC[C@@H]1NC(=O)[C@@H]2CSSC[C@H](NC(=O)[C@H](Cc3c[nH]c4ccccc34)NC(=O)[C@H](CCCNC(N)=O)NC(=O)[C@@H](Cc3ccccc3)NC(=O)[C@H](Cc3c[nH]cn3)NC1=O)C(=O)N[C@@H](CCCCN)C(=O)N[C@@H](Cc1c[nH]cn1)C(=O)N[C@H](Cc1ccccc1)C(=O)N[C@@H](CCCNC(N)=O)C(=O)N[C@@H](Cc1c[nH]c3ccccc13)C(=O)N2
notes: also called c[c[Cys-Lys-His-D-Phe-Cit-Trp-Cys]-Lys-His-D-Phe-Cit-Trp]
Turning to B11, the “MC4R cAMP EC50” value in assay [1] came to 0.1 nM. Besides, in assay [2], the “MC1R cAMP EC50” value stood at 4.14 nM. This molecule displayed a Ki in assay [3] of 0.33 nM.

B12: Chem. 5 (peptide)
peptide: cyclo(CH[dF]RWACH[dF]RWA)
modifications: disulfide 1-7
SMILES: C[C@@H]1NC(=O)[C@H](Cc2c[nH]c3ccccc23)NC(=O)[C@H](CCCNC(=N)N)NC(=O)[C@@H](Cc2ccccc2)NC(=O)[C@H](Cc2c[nH]cn2)NC(=O)[C@@H]2CSSC[C@H](NC1=O)C(=O)N[C@@H](Cc1c[nH]cn1)C(=O)N[C@H](Cc1ccccc1)C(=O)N[C@@H](CCCNC(=N)N)C(=O)N[C@@H](Cc1c[nH]c3ccccc13)C(=O)N[C@@H](C)C(=O)N2
notes: also called c[c[Cys-His-D-Phe-Arg-Trp-Ala-Cys]-His-D-Phe-Arg-Trp-Ala]
In the case of B12, the “MC4R cAMP EC50” value in assay [1] is 0.21 nM. For the same molecule, in assay [2], the “MC1R cAMP EC50” value is 6.47 nM. Further, the affinity in assay [3] corresponds to a Ki of 0.99 nM.

B13: Chem. 121 (peptide)
peptide: cyclo(CPH[dF]HWCAH[dK][dK]R)
modifications: disulfide 1-7
SMILES: C[C@@H]1NC(=O)[C@@H]2CSSC[C@H](NC(=O)[C@H](CCCNC(=N)N)NC(=O)[C@@H](CCCCN)NC(=O)[C@@H](CCCCN)NC(=O)[C@H](Cc3c[nH]cn3)NC1=O)C(=O)N1CCC[C@H]1C(=O)N[C@@H](Cc1c[nH]cn1)C(=O)N[C@H](Cc1ccccc1)C(=O)N[C@@H](Cc1c[nH]cn1)C(=O)N[C@@H](Cc1c[nH]c3ccccc13)C(=O)N2
In the case of B13, in assay [1], the “MC4R cAMP EC50” value stood at 0.24 nM. In addition, in assay [2], the “MC1R cAMP EC50” value worked out at 189 nM.
